Results reported in patent publication US20200181198A1 (3M INNOVATIVE PROPERTIES, published 2020).
Ends that are not written are not given here.

Assays:
[1] = target: T1, Recombinant Human Epidermal Growth Factor (EGF) (human, UniProt P01133 971-1023); test: SPR (Biacore 3000, CM5 chip), linker modified peptide immobilized, EGF as analyte, Test Method A; EGF as analyte
T1 construct: Commercial reagent; also called EGF protein
Description: (§1) The following Test Method A was used for determining the binding affinity (KD) of SEQ ID NO: 1 for EGF and TNF-[…] Binding experiments were performed using Biacore 3000 optical biosensors equipped with research-grade CM5 sensor chips (GE Healthcare Bio-Sciences Corporation). The reagents used for the amine-coupling steps [(1-ethyl-3-(3-dimethylaminopropyl)-carbodiimide (EDC); N-hydroxysuccinimide (NHS); and ethanolamine hydrochloride-NaOH (1 M, pH 8.5)] were obtained from GE Healthcare Bio-Sciences Corporation. In order to efficiently immobilize the peptide on the sensor chips, a modified version of SEQ ID NO:1 was prepared by SPPS in which a “CK” amino acid linker sequence was added to the N-terminal end of the SEQ ID NO: 1 peptide (i.e. linker modified version of SEQ ID NO: 1 for immobilization being […]). A standard coupling protocol was employed to immobilize the linker modified version of SEQ ID NO: 1 via the lysine residues. The immobilization was performed at 25° C. using HBS-EP as the running buffer. The CM-dextran surfaces of the sensor chip flow cells were activated by a seven minute injection (20 microliters/minute) of freshly prepared 1:1 50 mM NHS: 200 mM EDC. A solution of linker modified SEQ ID NO: 1 in acetic acid (20 mM, pH 5.5) was injected to target 200 response units (RU). […]

[2] = target: T2, Recombinant Human Tumor Necrosis Factor-alpha (TNF-alpha) (human, UniProt P01375 77-233); test: SPR (Biacore 3000, CM5 chip), linker modified peptide immobilized, TNF-alpha as analyte, Test Method A; TNF-alpha as analyte
T2 construct: Commercial reagent; also called TNFα
T2 sequence (P01375 77-233 limits assumed): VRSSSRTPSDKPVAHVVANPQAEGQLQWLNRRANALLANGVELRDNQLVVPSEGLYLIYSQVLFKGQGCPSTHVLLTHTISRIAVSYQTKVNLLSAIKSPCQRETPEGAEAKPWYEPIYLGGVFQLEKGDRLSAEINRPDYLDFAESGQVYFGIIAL
Description: as §1

[3] = target: T2, Recombinant Human Tumor Necrosis …; test: SPR (Biacore 3000, CM5 chip), linker modified peptide immobilized, TNF-alpha as analyte, 25 C
Description: as §1

[4] = target: T1, Recombinant Human Epidermal Growth …; test: SPR (Biacore 3000, CM5 chip), linker modified peptide immobilized by amine coupling, EGF analyte 62.5-1000 nM, 25 C, 1:1 Langmuir global fit
Description: as §1

[5] = target: T1, Recombinant Human Epidermal Growth …; test: dot blot, EGF spotted on nitrocellulose, biotinylated peptide in solution, Streptavidin-HRP detection
Description: EGF (1 microliter of a 10 nM solution in PBS was spotted a nitrocellulose membrane (obtained from Thermo Fisher Scientific) and the membrane was dried in air for about 30 minutes. The membrane was then incubated in 15 mL of blocking buffer (3 wt. % BSA in PBS) for one hour at room temperature. The membrane was washed three times (15 minutes for each wash) with 15 mL portions of fresh PBST. The washed membrane was incubated with Biotinylated SEQ ID NO: 1 [10 mL of a 10 ng/mL solution in blocking buffer (3 wt. % BSA in PBS)] with gentle agitation for one hour. The membrane was again washed three times (15 minutes for each wash) with 15 mL portions of fresh PBST. The washed membrane was incubated with Streptavidin-HRP [1:5000 dilution in 10 mL of the blocking buffer (3 wt. % BSA in PBS)] for 30 minutes with gentle agitation. Following the incubation, the membrane was washed three times (15 minutes for each wash) with 15 mL portions of fresh PBST. The washed membrane was incubated with 10 mL of the development solution for horseradish peroxidase (TMB-Blotting Substrate Solution, Pierce-Fisher Scientific) with gentle agitation. The color development was stopped by adding water. A dark spot developed at the application site on the membrane indicating affinity of SEQ ID NO: 1 for EGF.

[6] = target: T1, Recombinant Human Epidermal Growth …; test: dot blot, peptide spotted on nitrocellulose, EGF in solution, anti-EGF-IgG-HRP detection
Description: SEQ ID NO: 1 (1 microliter of a 10 nM solution in PBS containing 3 wt. % DMSO) and SEQ ID NO: 2 (1 microliter of a 10 nM solution in PBS containing 3 wt. % DMSO) were individually spotted at separate sites on a nitrocellulose membrane (obtained from Thermo Fisher Scientific, Waltham, Mass.) and the membrane was dried in air for about 30 minutes. The membrane was then incubated in 25 mL of blocking buffer (3 wt. % BSA in PBS) for one hour at room temperature. The membrane was washed three times (15 minutes for each wash) with 15 mL portions of fresh PBST. The washed membrane was incubated with EGF protein [10 microliters of a 100 ng/mL solution in blocking buffer (3 wt. % BSA in PBS)] with gentle agitation for one hour. The membrane was again washed three times (15 minutes for each wash) with 15 mL portions of fresh PBST. The washed membrane was incubated with anti-EGF-IgG-HRP [1:5000 dilution in 10 mL of the blocking buffer (3 wt. % BSA in PBS)] for one hour with gentle agitation. Following the incubation, the membrane was washed three times (15 minutes for each wash) with 15 mL portions of fresh PBST. The washed membrane was incubated with 10 mL of the development solution for horseradish peroxidase (TMB-Blotting Substrate Solution, Pierce-Fisher Scientific, Rockford, Ill.) with gentle agitation. The color development was stopped by adding water.

T1 sequence (P01133 971-1023 limits assumed): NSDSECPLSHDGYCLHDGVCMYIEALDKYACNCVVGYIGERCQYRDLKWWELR

B1: linker modified version of SEQ ID NO: 2 (CKNVNWWSHWWHATD) (peptide)
peptide: CKNVNWWSHWWHATD
modifications: not fully specified (N-terminus, C-terminus); also: immobilized on CM5 chip by amine coupling or conjugated to iodoacetyl magnetic beads via linker cysteine
Question: What does the source list for B1?
Answer: Kd [1]: 2600 nM; Kd [2]: 2.45 mM

B2: linker modified version of SEQ ID NO: 1 (CKYVSPGMKNVNWWSHWWHATD) (peptide)
peptide: CKYVSPGMKNVNWWSHWWHATD
modifications: not fully specified (N-terminus, C-terminus); also: immobilized on CM5 chip by amine coupling via lysine residues
Question: Does B2 bind [3]?
Answer: Result: no binding

Question: What about the Kd [4] of the same binder?
Answer: The Kd was 706 nM.

Question: Does YVSPGMKNVNWWSHWWHATD-NH2 (not fully specified (N-terminus); also: biotinylated, site not given here) [Biotinylated SEQ ID NO: 1] bind [5]?
Answer: Result: binds

B3: SEQ ID NO: 1 peptide (YVSPGMKNVNWWSHWWHATD) (peptide)
peptide: Ac-YVSPGMKNVNWWSHWWHATD-NH2
notes: Chemically synthesized (SPPS, GenScript)
Question: Does B3 bind [6]?
Answer: Result: binds

B4: SEQ ID NO: 2 peptide (KNVNWWSHWWHATD) (peptide)
peptide: Ac-KNVNWWSHWWHATD-NH2
notes: as for B3
Question: Does B4 bind [6]?
Answer: Result: binds
